# According to publication PMC10790780:
# Columns and labels:
# [1] = tested on: Rho-His6 (transcription termination factor Rho) (Acinetobacter baumannii AB5075); assay: EMSA; details: LightShift chemiluminescent RNA EMSA kit components, 20 uL, 1 h at room temperature; 5% acrylamide TBE gel, 0.5x TBE, 100 V 120 min at 4 C; salt and pH not …
# [2] = target: T1, Rho-His6 (transcription termination factor Rho) (Acinetobacter baumannii AB5075) (UniProt A0ABX6CC36); assay: competition
# [3] = target: T1, Rho-His6 (transcription termination factor Rho) (Acinetobacter baumannii AB5075); assay: EMSA
Substance,Kd [1],further results
ABUW_1645 mRNA leader,20 nM,
ABUW_1959 mRNA leader,29 nM,
"GGGCUUUGCCUGCUAGCCACAUUGCUAGCGGGUUUUAGCAGACCCUAUUUAAACAAAGACGAUAGACAGAACCUAGUUUUGUGUGUCGUGAACUCGUUCGCCCCCUUUUUCUCUAUGGUAGGGCGGAAGGGGGACACCUUCGGGUGUGCUGGUUUCUUUGUUUUCCAGUCUGCUAACCCUCUUUCGUCCUGCCAGUACUGAUC [ABUW_1645 mRNA leader, unlabeled competitor]",,binding [2]: binds
GGGCUUUGCCUGCUAGCCACAUUGCUAGCGGGUUUUAGCAGACCCUAUUUAAACAAAGACGAUAGACAGAACCUAGUUUUGUGUGUCGUGAACUCGUUCGCCCCCUUUUUCUCUAUGGUAGGGCGGAAGGGGGACACCUUCGGGUGUGCUGGUUUCUUUGUUUUCCAGUCUGCUAACCCUCUUUCGUCCUGCCAGUACUGAUC [ABUW_1645 mRNA leader],,Kd [3]: 20 nM
